Test results from article PMC11077948.

Legend:
[1] = target: S. mutans CLC^F homologue encoded by ORF 1290 (Streptococcus mutans UA159); assay: cross-linking; 0.2 mg/mL purified protein in detergent (DM) with 0.125% glutaraldehyde (~500-fold molar excess) at room temperature for the indicated times, quenched with 0.15 M Tris-HCl pH 7.5, SDS-PAGE; monomer and dimer bands
[2] = target: S. mutans CLC^F F-/H+ antiporter encoded by ORF 1289 (Streptococcus mutans UA159); assay: as above

Substance | stoichiometry N [1] | stoichiometry N [2]
S. mutans CLC^F homologue encoded by ORF 1290 (natural protein) | 2 | 
S. mutans CLC^F F-/H+ antiporter encoded by ORF 1289 (natural protein) |  | 2
